Laboratory results: patent US20050064556A1

Target: factor Xa
Assay: cell-based or functional assay

Tissue Factor Pathway Inhibitor (TFPI), yeast-produced, authentic mature 276 amino acid polypeptide (from UniProt P10646 29-304)
factor Xa amidolytic assay, 50% inhibitory concentration: 20 ng/mL
